Biological target: His6-MS2 coat protein (bacteriophage MS2) (UniProt P03612)
Test: SEC; Superose 6 (10/300 GL); supernatants of crude cell extracts of E. coli JM101 expression cultures; 50 mM Tris-HCl pH 7.5, 300 mM NaCl; with or without benzonase treatment; reference proteins 669, 400 and 29 kDa

stoichiometry N: 2
Substance: His6-MS2 coat protein (from UniProt P03612 1-130) (natural protein)

From article PMC3753655
